Legend:
[1] = target: T1, human ASGR2 extracellular domain (hASGR2 ECD) (human, UniProt P07307 86-311, biotinylated (His/Avi tag)); experiment: BLI, Fab on hASGR2
T1 construct: Cloned with a His/Avi tag
T1 sequence: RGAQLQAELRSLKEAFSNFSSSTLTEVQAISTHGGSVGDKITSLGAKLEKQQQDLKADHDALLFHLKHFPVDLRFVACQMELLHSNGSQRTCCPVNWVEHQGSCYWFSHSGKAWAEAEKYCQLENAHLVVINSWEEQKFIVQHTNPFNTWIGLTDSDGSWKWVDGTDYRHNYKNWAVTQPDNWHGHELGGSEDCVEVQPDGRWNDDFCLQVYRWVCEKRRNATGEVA

[2] = target: T2, human ZNRF3 extracellular domain (hZNRF3 ECD) (human, UniProt Q9ULT6 56-219, biotinylated (His-Avi tag)); experiment: BLI (Octet), biotinylated ZNRF3 ECD on SA sensor
T2 construct: Expressed with a His-Avi tag at the N-terminus and biotinylated; also called ZRNF3
T2 sequence: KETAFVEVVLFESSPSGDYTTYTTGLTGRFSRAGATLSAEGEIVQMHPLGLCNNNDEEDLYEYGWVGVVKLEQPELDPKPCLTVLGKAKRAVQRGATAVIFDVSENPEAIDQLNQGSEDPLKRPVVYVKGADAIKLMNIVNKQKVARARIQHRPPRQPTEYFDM
Experimental: (§1) Affinity measurement: Binding kinetics of the RSPO-derived proteins to LGRS, RNF43, or ZNRF3, and binding of the anti-ASGR Fabs to human and/or mouse ASGR1 were determined by bio-layer interferometry (BLI) using Octet Red 96 (PALL ForteBio, Fremont, CA) instruments at 30° C., 1000 rpm with either streptavidin (SA) or anti-hIgG Fc capture (AHC) biosensors. […] Following capture of ECDs of RNF43, ZNRF3 or LGRS, the biosensors were dipped into wells containing the relevant test molecules at 7 different concentrations in running buffer plus a well with only running buffer as a reference channel. KD was determined by steady-state analysis based on the average responses between 140 to 145 seconds of association phase, for binding to LGRS, RNF43, and ZNRF3. For the binding to ASGR, KD was determined by curve model fitting using the Octet® Red data analysis software (Fortebio)

[3] = target: T3, human RNF43 extracellular domain (hRNF43 ECD) (human, UniProt Q68DV7 44-197, biotinylated (His-Avi tag)); experiment: BLI (Octet), biotinylated RNF43 ECD on SA sensor
T3 construct: Expressed with a His-Avi tag at the N-terminus and biotinylated; also called human RNF3 (Q44-D198)
T3 sequence: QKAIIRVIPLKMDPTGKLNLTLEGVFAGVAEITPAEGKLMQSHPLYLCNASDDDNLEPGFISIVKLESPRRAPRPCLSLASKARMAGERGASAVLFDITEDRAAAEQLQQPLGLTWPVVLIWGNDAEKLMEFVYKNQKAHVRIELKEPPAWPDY
Experimental: as §1

[4] = target: T4, Fc portion of human IgG1-fused LGR5-ECD (R&D systems) (human, UniProt O75473 22-557, limits assumed); experiment: BLI (Octet), LGR5-ECD-Fc on AHC sensor
T4 construct: extracellular domain; Bought reagent; also called LGRS; recombinant LGR5 protein; not shown: Fc portion of human IgG1
T4 sequence (looked up): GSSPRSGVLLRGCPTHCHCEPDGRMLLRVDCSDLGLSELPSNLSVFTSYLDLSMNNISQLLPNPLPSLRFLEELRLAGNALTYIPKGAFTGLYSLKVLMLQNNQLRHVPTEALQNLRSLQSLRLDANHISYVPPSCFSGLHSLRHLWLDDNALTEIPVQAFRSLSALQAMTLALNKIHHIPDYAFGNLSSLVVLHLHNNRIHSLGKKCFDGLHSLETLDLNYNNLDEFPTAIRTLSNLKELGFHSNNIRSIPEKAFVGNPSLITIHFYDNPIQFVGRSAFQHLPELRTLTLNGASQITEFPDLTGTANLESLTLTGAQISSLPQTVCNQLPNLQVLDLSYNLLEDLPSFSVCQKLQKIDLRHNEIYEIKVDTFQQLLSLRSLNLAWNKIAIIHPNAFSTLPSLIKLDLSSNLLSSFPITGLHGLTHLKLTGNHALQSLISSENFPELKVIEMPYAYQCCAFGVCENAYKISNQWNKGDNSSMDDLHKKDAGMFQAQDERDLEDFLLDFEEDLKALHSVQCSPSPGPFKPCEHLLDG
Experimental: as §1

[5] = target: T5, mouse ASGR1 extracellular domain (mASGR1 ECD) (mouse, biotinylated (His-Avi tag)); experiment: BLI (Octet), Fab on biotinylated ASGR1 ECD, curve model fitting; Kd only in FIG. 9A
T5 construct: His-Avi tag at the C-terminus, biotinylated; also called murine ASGR1; mouse ASGR1 (Q61-N284)
T5 chain: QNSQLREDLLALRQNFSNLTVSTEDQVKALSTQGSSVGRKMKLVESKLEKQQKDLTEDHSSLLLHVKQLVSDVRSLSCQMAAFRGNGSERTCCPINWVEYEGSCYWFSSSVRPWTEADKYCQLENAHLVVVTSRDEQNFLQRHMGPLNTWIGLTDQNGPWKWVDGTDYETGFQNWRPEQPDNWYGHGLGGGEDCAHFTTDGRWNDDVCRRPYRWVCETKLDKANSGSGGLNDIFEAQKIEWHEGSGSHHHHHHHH
Experimental: as §1

[6] = target: T6, human ASGR1 extracellular domain (hASGR1 ECD) (human, UniProt P07306 62-291, biotinylated (His-Avi tag)); experiment: as above
T6 construct: His-Avi tag at the N-terminus, biotinylated for BLI; also called human ASGR1 ECD
T6 sequence: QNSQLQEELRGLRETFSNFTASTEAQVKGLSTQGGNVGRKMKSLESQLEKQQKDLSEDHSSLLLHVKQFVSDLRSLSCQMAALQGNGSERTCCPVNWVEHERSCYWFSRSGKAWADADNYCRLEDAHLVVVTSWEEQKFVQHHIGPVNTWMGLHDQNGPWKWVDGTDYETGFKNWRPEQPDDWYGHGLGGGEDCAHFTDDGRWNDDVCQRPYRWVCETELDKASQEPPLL
Experimental: as §1

[7] = target: T6, human ASGR1 extracellular domain …; experiment: BLI, Fab on hASGR1

B1: Abv-3D11 Fab (Fab, V domains shown)
VH: EVQLVESGGGLVQPKGSLKLSCAASGFSFNTYAMNWVRQAPGKGLEWVARIRSKSNNYATYYADSVKDRFTISRDDSESMLYLQMNNLKTEDTAMYYCVRPRYDYWYFDVWGTGTTVTVSS
VL: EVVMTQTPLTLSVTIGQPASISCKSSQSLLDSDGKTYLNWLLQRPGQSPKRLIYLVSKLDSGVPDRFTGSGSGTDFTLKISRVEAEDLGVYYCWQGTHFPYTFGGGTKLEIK
notes: Tested as Fab, from hybridoma development
[1]
  binding result: binds

B2: αTFR1-RSPO2-5mut (anti-TFR1, RSPO2 (R65A/R69A/Q70A/F105A/F109A)) (other)
chain: QVQLQQSGPELVRPGVSVKISCKGSGYTFTDYAMHWVKQSHAKSLEWIGGISTYFGRTNYNQKFKGRATMTVDKSSSTAYMELARLTSEDSALYYCARGLSGNYVMDYWGQGTSVTVSSGGGGSGGGGSGGGGSDIVLFQSPASLAVSLGQRATISCRASESVDDYGNSFMHWYQQKPGQPPKLLIYRASNLESGIPARFSGSGSRTDFTLTINPVEADDVATYYCQQSNEAPPTFGGGTKLEIRGSGGSNPICKGCLSCSKDNGCSRCQQKLFFFLRAEGMAAYGECLHSCPSGYYGHRAPDMNRCARCRIENCDSCRSKDACTKCKVGFYLHRGRCFDECPDGFAPLEETMECVEGGDYKDDDDKGSHHHHHHHH
notes: FLAG-His tag; also called αTFR1-RSPO2-Smut; αTFR-RPOS-5mut
[2]
  binding result: no binding
[3]
  binding result: no binding
[4]
  binding result: no binding

B3: Abv-10B8 Fab (Fab, V domains shown)
VH: DVKLVESGEGLVKPGGSLKLSCAASGFTFSSYAMSWVRQTPEKRLEWVAYISSGGDYIYYVDTVKGRFTISRDNARNTLYLQMSSLKSEDTAVYYCTREGTGGMDYWGQGTSVTVSS
VL: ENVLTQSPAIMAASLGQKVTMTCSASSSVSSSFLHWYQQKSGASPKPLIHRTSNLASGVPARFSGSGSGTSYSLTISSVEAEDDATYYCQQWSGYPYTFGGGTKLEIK
notes: as for B1
[1]
  binding result: binds

B4: anti-ASGR1 Fab (Fab, V domains shown)
VH: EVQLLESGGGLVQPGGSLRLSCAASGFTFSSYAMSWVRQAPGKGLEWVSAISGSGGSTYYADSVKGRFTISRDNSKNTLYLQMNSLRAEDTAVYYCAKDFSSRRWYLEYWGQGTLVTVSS
VL: DIELTQDPAVSVALGQTVRITCQGDSLRSYYASWYQQKPGQAPVLVIYGKNNRPSGIPDRFSGSSSGNTASLTITGAQAEDEADYYCNSLERIGYLSYVFGGGTKLTVLG
notes: Made with a (His)6 tag at the C-terminus of the human IgG1 CH1 domain after a 5-mer linker (GSGSG); also called αASGR1 antibody (e.g., RO-01) expressed as a Fab
[5]
  binding result: binds
[6]
  binding result: binds

B5: LP1-2I13 Fab (Fab, V domains shown)
VH: EVQLVESGGGLVKPGGSRKLSCAASGFTFSDYGMHWVRQAPEKGLEWVAYISSGSSTIYYADTVKGRFTISRDNAKNTLFLQMTSLRSEDTAMYYCSRKGGFGDYEKSYAMDYWGQGTSVTVSS
VL: DIQMTQSPASLSASVGETVTITCRASENIYSYLVWYQQKQGKSPQLLVYNAKTLAEGVPSRFSGSGSGTQFSLKINSLQPEDFGSYYCQHHYGTWTFGGGIKLEIK
notes: as for B1
[7]
  binding result: binds

B6: αGFP-RSPO2-RA (anti-GFP, RSPO2 (F105R/F109A)) (other)
chain: QVQLVESGGGLVQPGGSLRLSCAASGFTFSRYGMHWVRQAPGKGLEWVSGISSIGSNTYYADSVKGRFTISRDNSKNTLYLQMNSLRAEDTAVYYCARWYKTYIDVWGQGTLVTVSSGGGGSGGGGSGGGGSDIELTQPPSVSVAPGQTARISCSGDNLGKKYVYWYQQKPGQAPVLVIYGDDERPSGIPERFSGSNSGNTATLTISGTQAEDEADYYCASYDSSHILIVFGGGTKLTVLGSGGSNPICKGCLSCSKDNGCSRCQQKLFFFLRREGMRQYGECLHSCPSGYYGHRAPDMNRCARCRIENCDSCRSKDACTKCKVGFYLHRGRCFDECPDGFAPLEETMECVEGGDYKDDDDKGSHHHHHHHH
notes: scFv against GFP fused to the RSPO2 Fu1-Fu2 fragment with F105R/F109A; FLAG-His tag
[2]
  binding result: binds
[3]
  binding result: binds
[4]
  binding result: no binding

B7: LP1-8M24 Fab (Fab, V domains shown)
VH: QVQLQQSGAELARPGASVKLSCKASGYTFTNYGINWVKQRTGQGLEWIGEIFPRSDNTFYNEKFKGKATLTADKSSTTAYMELRSLTSEDSAVYFCARKGRDYGTSHYFDYWGQGTTLTVSS
VL: DIQMTQSPASLSVSVGETVTITCRISENIYSNLAWYQQKQGKSPHLLVYAAINLADGVPSRFSGSGSGTQFSLKINSLQSEDFGSYYCQHFWGTPFTFGSGTKLEIK
notes: as for B1
[7]
  binding result: binds

— US20210380678A1 (SURROZEN OPERATING, published 2021)
